Source: patent US8460910B2 (Illumina Cambridge Limited, priority 2003, dated 2013)

Test system: 3′ modified nucleotide
Assay: Gel-based incorporation assay of Example 2, two cycles of enzymology on bead-bound 32P-labelled DNA template
Assay type: biochemical
Conditions: 45° C., 50 mM Tris, pH 8, 4 mM MgSO4, 0.05 (v/v) Tween, 50 μg/ml enzyme, 2 μM 3′ modified nucleotide; first cycle (in parentheses)
Description: The mutant polymerases were assessed for their ability to incorporate a 3′ blocked nucleotide analogue using a gel-based assay as described in generic form in Example 1. The rates of incorporation of the modified nucleotides were compared to purified forms of related DNA polymerases in both a single round of incorporation and through two rounds of nucleotide incorporation. The DNA template that was used for these experiments was a commercially-synthesised biotinylated oligonucleotide.
The method for two cycles of incorporation involves the binding of the DNA primer-template to streptavidin-coated beads (Dynalbeads). These are prepared as follows: • Resuspend beads in storage pot by pipetting up and down Take 20 μL beads • Wash 3×200 μL TE buffer (10 mM Tris HCl pH 7.5, 1 mM EDTA) Add 50 μL B&W buffer (5 mM Tris HCl, pH 7.5; 1M NaCl, […]) • 25 μL H2O • 25 μL of ^32P-labelled biotin DNA template (final concentration of 100 nM)
The first cycle of enzymatic incorporation is performed on these beads as follows:
Incorporation mix 1 is added to the bead pellet from above.
Reactions are incubated at 45° C. for 15 minutes
The first cycle of enzymology is then deblocked by treatment with tri(carboxyethyl) phosphine (TCEP) as follows:
Add 65 μL TCEP (100 mM) in water and incubate at 65° C. for 15 minutes
After removal of the TE buffer, a second cycle of enzymatic incorporation is then performed by the addition of incorporation mix 2, as follows:
Take 5 μL samples out at ½, 1, 2, 4, 10, 30, 60 mins and add to gel loading buffer with EDTA.
Heat all samples to 95° C. for 10 mins and load 3 μl on a 12% acrylamide gel (Sambrook and Russell, 2001).
Time (mins) to 50% product conversion on second cycle of enzymology at 45° C., 50 mM Tris, pH 8, 4 mM MgSO4, 0.05 (v/v) Tween, 50 μg/ml enzyme, and 2 μM 3′ modified nucleotide. Time to 50% product conversion on first cycle of incorporation shown in parentheses. For other mutants the time to 50% conversion on the first cycle was not measured in these experiments

| Molecule | Time to 50% product conversion on first cycle of incorporation |
| --- | --- |
| 9° N DM: 9° N (-exo) Y409V/A485L double mutant control polymerase; SEQ ID NO: 15 (protein, 9oN polymerase (exo-) with Y409V and A485L mutations) MILDTDYITENGKPVIRVFKKENGEFKIEYDRTFEPYFYALLKDDSAIEDVKKVTAKRHGTVVKVKRAEKVQKKFLGRPIEVWKLYFNHPQDVPAIRDRIRAHPAVVDIYEYDIPFAKRYLIDKGLIPMEGDEELTMLAFAIATLYHEGEEFGTGPILMISYADGSEARVITWKKIDLPYVDVVSTEKEMIKRFLRVVREKDPDVLITYNGDNFDFAYLKKRCEELGIKFTLGRDGSEPKIQRMGDRFAVEVKGRIHFDLYPVIRRTINLPTYTLEAVYEAVFGKPKEKVYAEEIAQAWESGEGLERVARYSMEDAKVTYELGREFFPMEAQLSRLIGQSLWDVSRSSTGNLVEWFLLRKAYKRNELAPNKPDERELARRRGGYAGGYVKEPERGLWDNIVYLDFRSLVPSIIITHNVSPDTLNREGCKEYDVAPEVGHKFCKDFPGFIPSLLGDLLEERQKIKRKMKATVDPLEKKLLDYRQRLIKILANSFYGYYGYAKARWYCKECAESVTAWGREYIEMVIRELEEKFGFKVLYADTDGLHATIPGADAETVKKKAKEFLKYINPKLPGLLELEYEGFYVRGFFVTKKKYAVIDEEGKITTRGLEIVRRDWSEIAKETQARVLEAILKHGDVEEAVRIVKEVTEKLSKYEVPPEKLVIHEQITRDLRDYKATGPHVAVAKRLAARGVKIRPGTVISYIVLKGSGRIGDRAIPADEFDPTKHRYDAEYYIENQVLPAVERILKAFGYRKEDLRYQKTKQVGLGAWLKVKGKK | no product conversion under these |

Same assay, conditions: 45° C., 50 mM Tris, pH 8, 4 mM MgSO4, 0.05 (v/v) Tween, 50 μg/ml enzyme, 2 μM 3′ modified nucleotide; second cycle

| Molecule | Time (mins) to 50% product conversion on second cycle of enzymology |
| --- | --- |
| 9° N DM: 9° N (-exo) Y409V/A485L double mutant control polymerase; SEQ ID NO: 15 (protein, 9oN polymerase (exo-) with Y409V and A485L mutations) MILDTDYITENGKPVIRVFKKENGEFKIEYDRTFEPYFYALLKDDSAIEDVKKVTAKRHGTVVKVKRAEKVQKKFLGRPIEVWKLYFNHPQDVPAIRDRIRAHPAVVDIYEYDIPFAKRYLIDKGLIPMEGDEELTMLAFAIATLYHEGEEFGTGPILMISYADGSEARVITWKKIDLPYVDVVSTEKEMIKRFLRVVREKDPDVLITYNGDNFDFAYLKKRCEELGIKFTLGRDGSEPKIQRMGDRFAVEVKGRIHFDLYPVIRRTINLPTYTLEAVYEAVFGKPKEKVYAEEIAQAWESGEGLERVARYSMEDAKVTYELGREFFPMEAQLSRLIGQSLWDVSRSSTGNLVEWFLLRKAYKRNELAPNKPDERELARRRGGYAGGYVKEPERGLWDNIVYLDFRSLVPSIIITHNVSPDTLNREGCKEYDVAPEVGHKFCKDFPGFIPSLLGDLLEERQKIKRKMKATVDPLEKKLLDYRQRLIKILANSFYGYYGYAKARWYCKECAESVTAWGREYIEMVIRELEEKFGFKVLYADTDGLHATIPGADAETVKKKAKEFLKYINPKLPGLLELEYEGFYVRGFFVTKKKYAVIDEEGKITTRGLEIVRRDWSEIAKETQARVLEAILKHGDVEEAVRIVKEVTEKLSKYEVPPEKLVIHEQITRDLRDYKATGPHVAVAKRLAARGVKIRPGTVISYIVLKGSGRIGDRAIPADEFDPTKHRYDAEYYIENQVLPAVERILKAFGYRKEDLRYQKTKQVGLGAWLKVKGKK | no product conversion under these |
| FAI: 9° N DM-derived polymerase with amino acids 408-410 FAI (protein, UniProt Q56366 1-775, looked up, variant D141A E143A L408F Y409A P410I A485L) DNA polymerase: MILDTDYITENGKPVIRVFKKENGEFKIEYDRTFEPYFYALLKDDSAIEDVKKVTAKRHGTVVKVKRAEKVQKKFLGRPIEVWKLYFNHPQDVPAIRDRIRAHPAVVDIYEYDIPFAKRYLIDKGLIPMEGDEELTMLAFAIATLYHEGEEFGTGPILMISYADGSEARVITWKKIDLPYVDVVSTEKEMIKRFLRVVREKDPDVLITYNGDNFDFAYLKKRCEELGIKFTLGRDGSEPKIQRMGDRFAVEVKGRIHFDLYPVIRRTINLPTYTLEAVYEAVFGKPKEKVYAEEIAQAWESGEGLERVARYSMEDAKVTYELGREFFPMEAQLSRLIGQSLWDVSRSSTGNLVEWFLLRKAYKRNELAPNKPDERELARRRGGYAGGYVKEPERGLWDNIVYLDFRSFAISIIITHNVSPDTLNREGCKEYDVAPEVGHKFCKDFPGFIPSLLGDLLEERQKIKRKMKATVDPLEKKLLDYRQRLIKILANSFYGYYGYAKARWYCKECAESVTAWGREYIEMVIRELEEKFGFKVLYADTDGLHATIPGADAETVKKKAKEFLKYINPKLPGLLELEYEGFYVRGFFVTKKKYAVIDEEGKITTRGLEIVRRDWSEIAKETQARVLEAILKHGDVEEAVRIVKEVTEKLSKYEVPPEKLVIHEQITRDLRDYKATGPHVAVAKRLAARGVKIRPGTVISYIVLKGSGRIGDRAIPADEFDPTKHRYDAEYYIENQVLPAVERILKAFGYRKEDLRYQKTKQVGLGAWLKVKGKK | 2.2 min |
| AAA: 9° N DM-derived polymerase with amino acids 408-410 AAA (protein, UniProt Q56366 1-775, looked up, variant D141A E143A L408A Y409A P410A A485L) DNA polymerase: MILDTDYITENGKPVIRVFKKENGEFKIEYDRTFEPYFYALLKDDSAIEDVKKVTAKRHGTVVKVKRAEKVQKKFLGRPIEVWKLYFNHPQDVPAIRDRIRAHPAVVDIYEYDIPFAKRYLIDKGLIPMEGDEELTMLAFAIATLYHEGEEFGTGPILMISYADGSEARVITWKKIDLPYVDVVSTEKEMIKRFLRVVREKDPDVLITYNGDNFDFAYLKKRCEELGIKFTLGRDGSEPKIQRMGDRFAVEVKGRIHFDLYPVIRRTINLPTYTLEAVYEAVFGKPKEKVYAEEIAQAWESGEGLERVARYSMEDAKVTYELGREFFPMEAQLSRLIGQSLWDVSRSSTGNLVEWFLLRKAYKRNELAPNKPDERELARRRGGYAGGYVKEPERGLWDNIVYLDFRSAAASIIITHNVSPDTLNREGCKEYDVAPEVGHKFCKDFPGFIPSLLGDLLEERQKIKRKMKATVDPLEKKLLDYRQRLIKILANSFYGYYGYAKARWYCKECAESVTAWGREYIEMVIRELEEKFGFKVLYADTDGLHATIPGADAETVKKKAKEFLKYINPKLPGLLELEYEGFYVRGFFVTKKKYAVIDEEGKITTRGLEIVRRDWSEIAKETQARVLEAILKHGDVEEAVRIVKEVTEKLSKYEVPPEKLVIHEQITRDLRDYKATGPHVAVAKRLAARGVKIRPGTVISYIVLKGSGRIGDRAIPADEFDPTKHRYDAEYYIENQVLPAVERILKAFGYRKEDLRYQKTKQVGLGAWLKVKGKK | 6.9 min |
| YST: 9° N DM-derived polymerase with amino acids 408-410 YST (protein, UniProt Q56366 1-775, looked up, variant D141A E143A L408Y Y409S P410T A485L) DNA polymerase: MILDTDYITENGKPVIRVFKKENGEFKIEYDRTFEPYFYALLKDDSAIEDVKKVTAKRHGTVVKVKRAEKVQKKFLGRPIEVWKLYFNHPQDVPAIRDRIRAHPAVVDIYEYDIPFAKRYLIDKGLIPMEGDEELTMLAFAIATLYHEGEEFGTGPILMISYADGSEARVITWKKIDLPYVDVVSTEKEMIKRFLRVVREKDPDVLITYNGDNFDFAYLKKRCEELGIKFTLGRDGSEPKIQRMGDRFAVEVKGRIHFDLYPVIRRTINLPTYTLEAVYEAVFGKPKEKVYAEEIAQAWESGEGLERVARYSMEDAKVTYELGREFFPMEAQLSRLIGQSLWDVSRSSTGNLVEWFLLRKAYKRNELAPNKPDERELARRRGGYAGGYVKEPERGLWDNIVYLDFRSYSTSIIITHNVSPDTLNREGCKEYDVAPEVGHKFCKDFPGFIPSLLGDLLEERQKIKRKMKATVDPLEKKLLDYRQRLIKILANSFYGYYGYAKARWYCKECAESVTAWGREYIEMVIRELEEKFGFKVLYADTDGLHATIPGADAETVKKKAKEFLKYINPKLPGLLELEYEGFYVRGFFVTKKKYAVIDEEGKITTRGLEIVRRDWSEIAKETQARVLEAILKHGDVEEAVRIVKEVTEKLSKYEVPPEKLVIHEQITRDLRDYKATGPHVAVAKRLAARGVKIRPGTVISYIVLKGSGRIGDRAIPADEFDPTKHRYDAEYYIENQVLPAVERILKAFGYRKEDLRYQKTKQVGLGAWLKVKGKK | 2.1 min |
| FAP: 9° N DM-derived polymerase with amino acids 408-410 FAP (protein, UniProt Q56366 1-775, looked up, variant D141A E143A L408F Y409A A485L) DNA polymerase: MILDTDYITENGKPVIRVFKKENGEFKIEYDRTFEPYFYALLKDDSAIEDVKKVTAKRHGTVVKVKRAEKVQKKFLGRPIEVWKLYFNHPQDVPAIRDRIRAHPAVVDIYEYDIPFAKRYLIDKGLIPMEGDEELTMLAFAIATLYHEGEEFGTGPILMISYADGSEARVITWKKIDLPYVDVVSTEKEMIKRFLRVVREKDPDVLITYNGDNFDFAYLKKRCEELGIKFTLGRDGSEPKIQRMGDRFAVEVKGRIHFDLYPVIRRTINLPTYTLEAVYEAVFGKPKEKVYAEEIAQAWESGEGLERVARYSMEDAKVTYELGREFFPMEAQLSRLIGQSLWDVSRSSTGNLVEWFLLRKAYKRNELAPNKPDERELARRRGGYAGGYVKEPERGLWDNIVYLDFRSFAPSIIITHNVSPDTLNREGCKEYDVAPEVGHKFCKDFPGFIPSLLGDLLEERQKIKRKMKATVDPLEKKLLDYRQRLIKILANSFYGYYGYAKARWYCKECAESVTAWGREYIEMVIRELEEKFGFKVLYADTDGLHATIPGADAETVKKKAKEFLKYINPKLPGLLELEYEGFYVRGFFVTKKKYAVIDEEGKITTRGLEIVRRDWSEIAKETQARVLEAILKHGDVEEAVRIVKEVTEKLSKYEVPPEKLVIHEQITRDLRDYKATGPHVAVAKRLAARGVKIRPGTVISYIVLKGSGRIGDRAIPADEFDPTKHRYDAEYYIENQVLPAVERILKAFGYRKEDLRYQKTKQVGLGAWLKVKGKK | 5.5 min |
| CST: 9° N DM-derived polymerase with amino acids 408-410 CST (protein, UniProt Q56366 1-775, looked up, variant D141A E143A L408C Y409S P410T A485L) DNA polymerase: MILDTDYITENGKPVIRVFKKENGEFKIEYDRTFEPYFYALLKDDSAIEDVKKVTAKRHGTVVKVKRAEKVQKKFLGRPIEVWKLYFNHPQDVPAIRDRIRAHPAVVDIYEYDIPFAKRYLIDKGLIPMEGDEELTMLAFAIATLYHEGEEFGTGPILMISYADGSEARVITWKKIDLPYVDVVSTEKEMIKRFLRVVREKDPDVLITYNGDNFDFAYLKKRCEELGIKFTLGRDGSEPKIQRMGDRFAVEVKGRIHFDLYPVIRRTINLPTYTLEAVYEAVFGKPKEKVYAEEIAQAWESGEGLERVARYSMEDAKVTYELGREFFPMEAQLSRLIGQSLWDVSRSSTGNLVEWFLLRKAYKRNELAPNKPDERELARRRGGYAGGYVKEPERGLWDNIVYLDFRSCSTSIIITHNVSPDTLNREGCKEYDVAPEVGHKFCKDFPGFIPSLLGDLLEERQKIKRKMKATVDPLEKKLLDYRQRLIKILANSFYGYYGYAKARWYCKECAESVTAWGREYIEMVIRELEEKFGFKVLYADTDGLHATIPGADAETVKKKAKEFLKYINPKLPGLLELEYEGFYVRGFFVTKKKYAVIDEEGKITTRGLEIVRRDWSEIAKETQARVLEAILKHGDVEEAVRIVKEVTEKLSKYEVPPEKLVIHEQITRDLRDYKATGPHVAVAKRLAARGVKIRPGTVISYIVLKGSGRIGDRAIPADEFDPTKHRYDAEYYIENQVLPAVERILKAFGYRKEDLRYQKTKQVGLGAWLKVKGKK | 19.5 min |
